Our source for the IC50 values is patent US12280121B2, “Immunoconjugates and methods” (Immunome, Inc., priority 2021, dated 2025).

Where two headings read alike, the source gives them in different places.

The subject of this assay is Jeko-1. The experiment in a line: CTG assay of ROR-1 ADCs and toxins, JeKo-1. Format: cell-based. On the procedure: FIG. 33 illustrates a CTG assay wherein ROR+ (JeKo-1) cells were incubated with the ADCs generated as described in FIG. 32 in serial three-fold dilutions and cell viability was assessed after 72 hours.
The CTG assay is a method of determining the number of viable cells in culture based on quantitation of the ATP present, an indicator of metabolically active cells. The cell assay requires the addition of a single reagent, Cell Titer Glo, in which cells are lysed and generation of a luminescent signal is produced. The luminescent signal is proportional to the amount of ATP present. The amount of ATP is directly proportional to the number of cells present in culture. For our assay, cells were ensured to be in log-phase for either Jeko-1 or MDA-MB-468. Cells were transferred to 96 wells and treated with compounds in three-fold serial dilution starting from 1 μM to 0.0000508 μM (10 points dilution), for 72 h. Cell viability was analyzed with CellTiter-Glo® Luminescent Cell Viability Assay (Promega) following manufactures' instruction. Percentage of viable cells in each compound concentration was determined by normalizing with the luminescence of vehicle control and plotted into percentage of viability versus dose response curve by nonlinear fit in GraphPad Prism software.
Novel ROR-1 antibody-drug conjugates (ADCs) were evaluated by CTG Assay in a similar manner as was described in Example 24 for screening of payloads. […] Briefly ROR+(JeKo-1/MDA-MB-468) or ROR− (Ramos) cells were transferred to 96 wells and treated with the ADCs in three-fold serial dilution starting from […] (10 points dilution), for 72 h. Cell viability was analyzed with CellTiter-Glo® Luminescent Cell Viability Assay (Promega) following the manufactures' instructions (FIG. 33). The percentage of viable cells at each ADC concentration was determined by normalizing with the luminescence of vehicle control and plotted into percentage of viability versus dose response curve by nonlinear fit in GraphPad Prism software.

B1: VLS-101 (conjugate, chains of the INN, looked up)
VH: QVQLQESGPGLVKPSQTLSLTCTVSGYAFTAYNIHWVRQAPGQGLEWMGSFDPYDGGSSYNQKFKDRLTISKDTSKNQVVLTMTNMDPVDTATYYCARGWYYFDYWGHGTLVTVSS
VL: DIVMTQTPLSLPVTPGEPASISCRASKSISKYLAWYQQKPGQAPRLLIYSGSTLQSGIPPRFSGSGYGTDFTLTINNIESEDAAYYFCQQHDESPYTFGEGTKVEIK
modifications: vedotin (MMAE) payload
For B1, the IC50 (commonly the concentration that gives 50% inhibition) runs as follows: (Jeko-1, average of run 1 and run 2, read-out: Avg. IC50) 60.1 nM; (Jeko-1 P3, run 1, 72 h, read-out: Jeko-1 P3 (RUN1) IC50) 63.4 nM; (Jeko-1 P4, run 2, 72 h, read-out: Jeko-1 P4 (RUN2) IC50) 56.8 nM.
